Test results taken from patent publication US20230014398A1 (University of Texas, published 2023).

What was measured:
TLR5 on HCT116 cells = TLR5 on HCT116 cells (UniProt O60602); assay: cell-based or functional assay
[1] = target: T1, Human 4Ig-B7-H3 extracellular domain (human, UniProt Q5ZPR3 29-466); assay: ELISA, extracellular domain plated on 96-well plates, MIL33B titrated, absorbance read
T1 construct: extracellular domain
T1 sequence (looked up): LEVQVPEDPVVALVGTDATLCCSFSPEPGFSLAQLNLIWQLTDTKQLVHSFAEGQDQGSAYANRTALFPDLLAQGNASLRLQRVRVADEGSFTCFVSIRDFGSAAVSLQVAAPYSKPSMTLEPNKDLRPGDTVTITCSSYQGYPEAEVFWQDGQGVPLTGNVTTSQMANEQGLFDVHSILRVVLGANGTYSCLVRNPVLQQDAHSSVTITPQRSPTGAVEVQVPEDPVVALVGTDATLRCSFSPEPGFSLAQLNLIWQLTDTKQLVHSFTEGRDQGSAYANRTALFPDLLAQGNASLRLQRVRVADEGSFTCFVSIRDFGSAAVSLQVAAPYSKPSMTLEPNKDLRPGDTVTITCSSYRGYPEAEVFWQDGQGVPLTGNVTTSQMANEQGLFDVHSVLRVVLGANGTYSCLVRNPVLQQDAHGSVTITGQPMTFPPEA
From the text: The extracellular domains of human 4Ig-B7-H3 and murine 2Ig-B7-H3 were purchased and plated down onto 96-well plates. […] Plates were then washed and assessed for antibody binding through absorbance measurements.

[2] = target: T2, Human 2Ig-B7-H3 extracellular domain (human, UniProt Q5ZPR3 29-466); assay: biolayer interferometry (Octet), MIL33B captured on the probe, extracellular domain in solution
T2 chain: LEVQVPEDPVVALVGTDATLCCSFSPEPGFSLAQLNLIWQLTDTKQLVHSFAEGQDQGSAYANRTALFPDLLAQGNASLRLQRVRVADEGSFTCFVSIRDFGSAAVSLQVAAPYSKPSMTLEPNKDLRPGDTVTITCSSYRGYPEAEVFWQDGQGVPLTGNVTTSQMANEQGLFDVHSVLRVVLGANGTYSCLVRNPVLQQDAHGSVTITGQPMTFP
Method: (§1) Dissociation constants, Kd, were determined utilizing biolayer interferometry (Octet) assays. […] The surface is then placed into a solution of analyte and the phase shift indicating binding was measured over time. The probe was then moved into a solution without analyte and the time course of off-binding was measured. This cycle was repeated for multiple analyte concentrations, and the Kd was calculated from global curve fitting of the concentration- and time-dependence of the analyte binding to the antibody.
(§2) The extracellular domains of the indicated B7 family proteins were purchased from R&D Systems. All proteins were validated by the vendor to be both pure and functional.

[3] = target: T1, Human 4Ig-B7-H3 extracellular domain; assay: as above
Method: as §1, §2

[4] = target: T3, Mouse 2Ig-B7-H3 extracellular domain (mouse, UniProt Q8VE98 29-248); assay: as above
T3 construct: extracellular domain; Purchased recombinant extracellular domain; also called murine 2Ig-B7-H3
T3 sequence (looked up): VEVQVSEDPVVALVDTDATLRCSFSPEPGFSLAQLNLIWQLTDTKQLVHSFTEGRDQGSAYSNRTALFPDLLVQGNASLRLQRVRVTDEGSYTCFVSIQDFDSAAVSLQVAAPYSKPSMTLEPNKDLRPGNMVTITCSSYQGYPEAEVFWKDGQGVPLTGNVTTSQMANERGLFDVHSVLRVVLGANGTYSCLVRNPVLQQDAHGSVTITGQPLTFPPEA
Method: as §1, §2

[5] = target: T3, Mouse 2Ig-B7-H3 extracellular domain; assay: ratio of Kd values, told as the reason for using 100 ug/mL MIL33B-A594 on Pan02 cells
[6] = target: T1, Human 4Ig-B7-H3 extracellular domain; assay: biolayer interferometry (Octet), comparison of Kd values of Table 6
From the text: as §2

[7] = target: T4, Human 4Ig-B7-H3 expressed on cells (human, UniProt Q5ZPR3 29-534); assay: in vivo PET of 89Zr-DFO-labeled antibody in mice bearing 4T1 or B16F10 tumors with human 4Ig-B7-H3 or vector control, %ID/cc of tumor VOIs at 24 and 72 hr
T4 construct: whole, on cells; also called native 4Ig-B7-H3 on HeLa and HCT116 cells; human 4Ig-B7-H3 on transduced 4T1, B16F10 and L cells
T4 sequence (looked up): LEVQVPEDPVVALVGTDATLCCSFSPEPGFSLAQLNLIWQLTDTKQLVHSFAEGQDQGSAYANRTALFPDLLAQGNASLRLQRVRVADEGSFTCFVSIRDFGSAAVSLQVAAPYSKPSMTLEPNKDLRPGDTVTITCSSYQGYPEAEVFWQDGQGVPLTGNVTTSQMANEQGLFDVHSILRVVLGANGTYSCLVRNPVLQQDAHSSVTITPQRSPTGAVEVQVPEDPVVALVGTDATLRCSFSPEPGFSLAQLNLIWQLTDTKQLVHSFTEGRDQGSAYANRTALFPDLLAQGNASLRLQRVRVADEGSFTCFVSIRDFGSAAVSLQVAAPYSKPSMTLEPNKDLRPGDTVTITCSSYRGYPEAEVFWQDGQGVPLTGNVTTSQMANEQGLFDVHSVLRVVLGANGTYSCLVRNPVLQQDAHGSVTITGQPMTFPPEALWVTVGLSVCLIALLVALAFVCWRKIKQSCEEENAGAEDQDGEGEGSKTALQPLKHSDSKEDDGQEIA
From the text: (§3) Immune competent mice bearing subcutaneous 4T1 tumors expressing human 4Ig-B7-H3 or negative vector (see Western blots in FIG. 3) were utilized. […] Similarly, B16F10 cells were transduced with human 4Ig-B7-H3 or empty vector. These cells have less endogenous murine 2Ig-B7H3 than 4T1 tumors.

[8] = target: T5, Murine 2Ig-B7-H3 expressed on cells (mouse, UniProt Q8VE98 29-316); assay: PET imaging in mice with 4T1 or B16F10 tumors carrying the negative (empty) vector, with endogenous murine 2Ig-B7-H3 only, 24 and 72 hr after injection
T5 construct: whole, on cells; also called murine B7-H3 expressed on tumor cells; 2Ig-B7-H3 on Pan02 and 4T1 cells
T5 sequence (looked up): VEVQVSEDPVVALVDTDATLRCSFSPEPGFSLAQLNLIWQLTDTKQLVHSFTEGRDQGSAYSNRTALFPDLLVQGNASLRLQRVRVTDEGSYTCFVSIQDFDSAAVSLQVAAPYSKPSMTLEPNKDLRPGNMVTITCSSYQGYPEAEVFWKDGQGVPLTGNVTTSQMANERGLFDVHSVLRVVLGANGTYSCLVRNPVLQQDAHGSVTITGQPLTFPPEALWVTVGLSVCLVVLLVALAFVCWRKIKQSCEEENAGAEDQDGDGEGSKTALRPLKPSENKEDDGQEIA
From the text: as §3

[9] = target: T5, Murine 2Ig-B7-H3 expressed on cells; assay: live cell immunofluorescence microscopy on Pan02 cells, MIL33B-A594 at 100 µg/mL; one panel blocked with unlabeled MIL33B
From the text: (§4) Cells were washed and imaged by fluorescence microscopy (TiE, Nikon).

[10] = target: T4, Human 4Ig-B7-H3 expressed on cells; assay: live cell immunofluorescence microscopy on 4T1 cells transduced with human 4Ig-B7-H3, labeled antibody at 1 µg/mL
From the text: Murine breast tumor, 4T1 cells (ATCC), were stably transduced with human 4Ig-B7-H3 or empty vector using lentiviral constructs.
as §4

[11] = target: T1, Human 4Ig-B7-H3 extracellular domain; assay: ELISA

Sequence of TLR5 on HCT116 cells (O60602 21-858 limits assumed): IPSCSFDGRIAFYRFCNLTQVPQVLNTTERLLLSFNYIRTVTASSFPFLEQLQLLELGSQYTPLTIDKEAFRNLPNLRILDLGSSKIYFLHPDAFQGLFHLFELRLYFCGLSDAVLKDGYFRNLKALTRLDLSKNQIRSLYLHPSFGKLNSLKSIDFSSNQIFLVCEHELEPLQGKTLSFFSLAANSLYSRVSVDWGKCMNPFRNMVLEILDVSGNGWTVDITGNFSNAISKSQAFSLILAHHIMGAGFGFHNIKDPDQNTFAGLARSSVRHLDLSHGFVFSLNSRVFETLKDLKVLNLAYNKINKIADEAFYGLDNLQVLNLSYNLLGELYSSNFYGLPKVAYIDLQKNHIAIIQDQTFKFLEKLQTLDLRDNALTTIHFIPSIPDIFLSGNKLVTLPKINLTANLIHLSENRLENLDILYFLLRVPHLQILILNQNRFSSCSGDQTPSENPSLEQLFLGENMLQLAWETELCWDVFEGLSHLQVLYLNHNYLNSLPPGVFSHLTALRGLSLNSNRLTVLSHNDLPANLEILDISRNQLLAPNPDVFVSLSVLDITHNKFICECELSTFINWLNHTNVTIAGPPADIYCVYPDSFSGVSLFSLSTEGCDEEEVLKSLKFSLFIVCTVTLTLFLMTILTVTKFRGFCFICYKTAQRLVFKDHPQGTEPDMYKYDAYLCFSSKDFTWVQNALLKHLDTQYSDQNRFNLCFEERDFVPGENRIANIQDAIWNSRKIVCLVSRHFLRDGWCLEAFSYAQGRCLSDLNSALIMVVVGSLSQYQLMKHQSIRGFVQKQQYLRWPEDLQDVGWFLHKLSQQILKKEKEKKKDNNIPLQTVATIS

Molecule: Purified flagellin (ligand)
- activation of NF-kB (kB-RE5-IkBa-Fluc reporter in HCT116 cells) (TLR5 on HCT116 cells): 1.8 nM

B1: MIL33B monoclonal antibody (antibody, IgG2a, V domains shown)
VH: EVQLQQSGPELVKPGASVKMSCKASGYTFTSYVMHWVRQSPGQGLEGIGYINSYSDGTKYNEKFKGKATLTSDKSSSTAYMELSGLTSEDSAVYYCARWGGLGNGAMDYWGQGTSVTVSS
VL: QIVLTQSPAIMSASPGEKVTMTCSVSSSVNYMHWYQQKSGTSPKRWIYDTSKLASGVPARFSASGSGTSYSLTISSMEAEDAATYYCQQWTSNPLTFGAGTKLELK
notes: Mouse hybridoma antibody from an NZBWF1/J mouse; constant regions are not; also called MIL33B mAb; MIL33B antibody
- EC50 (read off the curve) [1]: ~100 pM
- Kd [2]: 580 pM
- Kd [3]: 72.3 pM
- Kd [4]: 41100 pM
- fold shift in Kd from human 4Ig-B7-H3 to murine 2Ig-B7-H3 [5]: ~100 fold
- fold better binding than to other B7 family members [6]: ≥ 1000 fold

B2: MIL33B conjugated with DFO and radiolabeled with 89Zr (antibody, mouse IgG2a, V domains shown)
VH: EVQLQQSGPELVKPGASVKMSCKASGYTFTSYVMHWVRQSPGQGLEGIGYINSYSDGTKYNEKFKGKATLTSDKSSSTAYMELSGLTSEDSAVYYCARWGGLGNGAMDYWGQGTSVTVSS
VL: QIVLTQSPAIMSASPGEKVTMTCSVSSSVNYMHWYQQKSGTSPKRWIYDTSKLASGVPARFSASGSGTSYSLTISSMEAEDAATYYCQQWTSNPLTFGAGTKLELK
modifications: DFO chelator with 89Zr on the antibody, residues not stated
notes: also called MIL33B-DFO; radiolabeled MIL33B antibody
- binding result [7]: binds
- binding result [8]: binds

B3: MIL33B labeled with Alexa594 fluorophore (antibody, V domains shown)
VH: EVQLQQSGPELVKPGASVKMSCKASGYTFTSYVMHWVRQSPGQGLEGIGYINSYSDGTKYNEKFKGKATLTSDKSSSTAYMELSGLTSEDSAVYYCARWGGLGNGAMDYWGQGTSVTVSS
VL: QIVLTQSPAIMSASPGEKVTMTCSVSSSVNYMHWYQQKSGTSPKRWIYDTSKLASGVPARFSASGSGTSYSLTISSMEAEDAATYYCQQWTSNPLTFGAGTKLELK
modifications: Alexa594 fluorophore on the antibody, residues not stated
notes: also called MIL33B-A594; Alexa594-labeled MIL33B
- binding result [9]: binds
- binding result [10]: binds

B4: Flagellin-conjugated MIL33B (other)
VH: EVQLQQSGPELVKPGASVKMSCKASGYTFTSYVMHWVRQSPGQGLEGIGYINSYSDGTKYNEKFKGKATLTSDKSSSTAYMELSGLTSEDSAVYYCARWGGLGNGAMDYWGQGTSVTVSS
VL: QIVLTQSPAIMSASPGEKVTMTCSVSSSVNYMHWYQQKSGTSPKRWIYDTSKLASGVPARFSASGSGTSYSLTISSMEAEDAATYYCQQWTSNPLTFGAGTKLELK
modifications: MIL33B (mouse IgG2a) is chemically conjugated to purified flagellin through a commercial linker kit. Attachment sites and the number of flagellins per antibody are not stated, and the letters cannot carry them.
notes: Chemical conjugate of MIL33B (mouse IgG2a) and flagellin; also called MIL33B-flgn conjugate; MIL33B-flagellin conjugate; not shown: Flagellin (purified, InvivoGen)
- EC50 [11]: 36000 pM
